Measured values reported in the supplement of paper PMC10724198.

Assays:
Saccharomyces cerevisiae [1] = assay: protein stability index of tFT-peptide fusion in deletion strain of DAS1 (PSI (0-1 scale)); higher = more stable (slower turnover)
Description: (§1)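 MPS profiling in S. cerevisiae of two library types built from selected 12-aa C-degron peptides (IN1, IN2, LN1, LN3, VN2, R1-R5, W1-W3, Atg1 and Rpa12 C-termini): saturation mutagenesis libraries and C-terminal +1 capping libraries (13 aa). Each peptide is fused to the C-terminus of a sfGFP-mCherry timer, after a GGGS linker. Cells are FACS-sorted into 8 mCherry/sfGFP bins and sequenced. PSI runs from 0 (unstable) to 1 (stable), measured once in wild type and in the das1Δ or doa10Δ background.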

Saccharomyces cerevisiae [2] = assay: protein stability index of tFT-peptide fusion in wild type (PSI (0-1 scale)); higher = more stable (slower turnover); conditions: genetic background: wild type
Description: as §1
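Throughout, for protein stability index of tFT-peptide fusion in deletion strain of DAS1: PSI is a weighted mean of each variant's read distribution over the sorted stability bins, computed only for variants having over 10 reads in total.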
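Throughout, for protein stability index of tFT-peptide fusion in wild type: PSI derived as read-weighted mean over the 8 sorting bins, only variants exceeding 10 total reads kept, mCherry placed adjacent to the peptide and sfGFP distal.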

Sequence	protein stability index (Saccharomyces cerevisiae [1])	protein stability index (Saccharomyces cerevisiae [2])
KKHKKGQKMKIN	0.583	0.105
KKHKKGQKQIIN	0.584	0.642
KKHKKGQKQKIH	0.662	0.114
KKHKKGQKQKINN	0.659	0.231
KKHKKGQKQKINP	0.663	0.658
KKHKKGQKQKINQ	0.664	0.644
KKHKKGQKQKINR	0.657	0.644
KKHKKGQKQKIP	0.638	0.336
KKHKKGQKQKQN	0.583	0.264
KKHKKGQKTKIN	0.619	0.435
KKHKKGQYQKIN	0.569	0.0851
KKHMKGQKQKIN	0.551	0.103
KKHRKGQKQKIN	0.678	0.109
KKHTKGQKQKIN	0.622	0.129
KSLAASFWRVVG	0.673	0.112
LDVYLSCVACIN	0.231	0.134
LKALRQKMNHQN	0.672	0.213
LKFLRQKMNHQN	0.697	0.166
LKHKKGQKQKIN	0.576	0.094
LKICRQKMNHQN	0.722	0.254
LKIFRQKMNHQN	0.669	0.191
LKIHRQKMNHQN	0.673	0.226
LKIIRQKMNHQN	0.718	0.204

Sequence	protein stability index (Saccharomyces cerevisiae [1])	protein stability index (Saccharomyces cerevisiae [2])
LKILFQKMNHQN	0.688	0.267
LKILRAKMNHQN	0.665	0.223
LKILRQCMNHQN	0.686	0.288
LKILRQKCNHQN	0.663	0.295
LKILRQKINHQN	0.668	0.23
LKILRQKMKHQN	0.687	0.568
LKILRQKMLHQN	0.643	0.227
LKILRQKMNAQN	0.671	0.208
LKILRQKMNHQN	0.674	0.192
LKILRQKMNHQNK	0.664	0.656
LKILRQKMNHQNY	0.705	0.595
LKILRQKMNHQQ	0.691	0.193
LKILRQKMNKQN	0.656	0.246
LKILRQKMNRQN	0.68	0.21
LKILRQKMNVQN	0.661	0.226
LKILRQSMNHQN	0.661	0.238
LKILRRKMNHQN	0.648	0.216
LNVYLSCVACIN	0.188	0.043
LQILRQKMNHQN	0.701	0.117
LTVYLSCVACIN	0.0375	0.0165
LVVYHSCVACIN	0.313	0.181
LVVYLACVACIN	0.041	0.0186
LVVYLCCVACIN	0.0405	0.0154

Sequence	protein stability index (Saccharomyces cerevisiae [1])	protein stability index (Saccharomyces cerevisiae [2])
LVVYLDCVACIN	0.119	0.0395
LVVYLSCQACIN	0.0148	0.00888
LVVYLSCVAAIN	0.0388	0.0144
LVVYLSCVACEN	0.132	0.132
LVVYLSCVACIE	0.0184	0.0121
LVVYLSCVACINF	0.0394	0.024
LVVYLSCVACINL	0.0337	0.0224
LVVYLSCVACPN	0.0988	0.0732
LVVYLSCVACRN	0.0464	0.0192
LVVYLSCVMCIN	0.0156	0.0111
LVVYLSCVPCIN	0.305	0.237
LYVYLSCVACIN	0.0144	0.0152
NKILRQKMNHQN	0.701	0.113
PDKFNHLIKLLN	0.622	0.117
PDKPNHLIKLLN	0.607	0.199
PDKRGHLIKLLN	0.593	0.113
PDKRHHLIKLLN	0.705	0.113
PDKRIHLIKLLN	0.589	0.0865
PDKRNCLIKLLN	0.586	0.148
PDKRNELIKLLN	0.608	0.115
PDKRNGLIKLLN	0.614	0.222
PDKRNHGIKLLN	0.587	0.41
PDKRNHLHKLLN	0.59	0.265

Sequence	protein stability index (Saccharomyces cerevisiae [1])	protein stability index (Saccharomyces cerevisiae [2])
PDKRNHLIKHLN	0.601	0.0778
PDKRNHLIKLLD	0.611	0.666
PDKRNHLIKLLE	0.606	0.579
PDKRNHLIKLLNH	0.669	0.142
PDKRNHLIKLLNK	0.67	0.655
PDKRNHLIKLLNN	0.666	0.137
PDKRNHLIKLRN	0.672	0.623
PDKRNHLISLLN	0.614	0.438
PDKRNHLIWLLN	0.705	0.0587
PDKRNHLIYLLN	0.702	0.0898
PDKRNHMIKLLN	0.625	0.0922
PDKRNHNIKLLN	0.602	0.172
PDKRNHPIKLLN	0.574	0.282
PDKRNYLIKLLN	0.601	0.119
PDKRQHLIKLLN	0.562	0.065
PDKRWHLIKLLN	0.633	0.0628
PDPRNHLIKLLN	0.582	0.15
PDWRNHLIKLLN	0.627	0.144
PFKRNHLIKLLN	0.587	0.0943
PNKRNHLIKLLN	0.597	0.0744
